Sequences and labels used below:
B1: GST-p107 R1R2 [not stated] / B55α (PP2A regulatory subunit B55α), endogenous in U-2 OS cells [human (endogenous in U-2 OS)] (parent)
chain 1: KVPTCEEVIFPNNFETGNGGNVQGHLPLMPMSPLMHPRVKEVRTDSGSLRRDMQPLSPISVHERYSSPTAGSAKRRLF
chain 2: MAGAGGGNDIQWCFSQVKGAVDDDVAEADIISTVEFNHSGELLATGDKGGRVVIFQQEQENKIQSHSRGEYNVYSTFQSHEPEFDYLKSLEIEEKINKIRWLPQKNAAQFLLSTNDKTIKLWKISERDKRPEGYNLKEEDGRYRDPTTVTTLRVPVFRPMDLMVEASPRRIFANAHTYHINSISINSDYETYLSADDLRINLWHLEITDRSFNIVDIKPANMEELTEVITAAEFHPNSCNTFVYSSSKGTIRLCDMRASALCDRHSKLFEEPEDPSNRSFFSEIISSISDVKFSHSGRYMMTRDYLSVKIWDLNMENRPVETYQVHEYLRSKLCSLYENDCIFDKFECCWNGSDSVVMTGSYNNFFRMFDRNTKRDITLEASRENNKPRTVLKPRKVCASGKRKKDEISVDSLDFNKKILHTAWHPKENIIAVATTNNLYIFQDKVN

Variants of B1 are the subject of the experiment. Nature of the experiment: GST pull-down, western blot. The note with it: with B55α (PP2A regulatory subunit B55α), U2-OS lysates, triplicate, read off a plot.
Take chain 1 R64A: the ratio to parent is 0.57.

For the origin of these results see article PMC8575462, “PP2A/B55α substrate recruitment as defined by the retinoblastoma-related protein p107” (eLife, 2021).
